Source: paper PMC8837605, “In vitro reconstitution of an efficient nucleotide excision repair system using mesophilic enzymes from Deinococcus radiodurans”

Assays:
drUvrA1 [1] = target: T1, drUvrA1 (Deinococcus radiodurans, UniProt Q46577 1-1016); assay: fluorescence polarization; 2.5 mM Mg2+, 2.5 mM ATP; Hill 2.10; 50 mM Tris pH 7.5, 50 mM KCl, 5 mM DTT, 0.01% Tween 20, 2.5 mM MgCl2, 2.5 mM ATP, 0.1 mg/mL BSA; room temperature; 2 nM DNA, 0-1 uM drUvrA1 (dimer); conditions: protein: recombinant; tags: N-terminal His-tag removed by TEV; chain copies: 2; label: 5'-ATTO633 on strand 1; internal fluorescein-dT; blunt
T1 sequence (Q46577 whole entry): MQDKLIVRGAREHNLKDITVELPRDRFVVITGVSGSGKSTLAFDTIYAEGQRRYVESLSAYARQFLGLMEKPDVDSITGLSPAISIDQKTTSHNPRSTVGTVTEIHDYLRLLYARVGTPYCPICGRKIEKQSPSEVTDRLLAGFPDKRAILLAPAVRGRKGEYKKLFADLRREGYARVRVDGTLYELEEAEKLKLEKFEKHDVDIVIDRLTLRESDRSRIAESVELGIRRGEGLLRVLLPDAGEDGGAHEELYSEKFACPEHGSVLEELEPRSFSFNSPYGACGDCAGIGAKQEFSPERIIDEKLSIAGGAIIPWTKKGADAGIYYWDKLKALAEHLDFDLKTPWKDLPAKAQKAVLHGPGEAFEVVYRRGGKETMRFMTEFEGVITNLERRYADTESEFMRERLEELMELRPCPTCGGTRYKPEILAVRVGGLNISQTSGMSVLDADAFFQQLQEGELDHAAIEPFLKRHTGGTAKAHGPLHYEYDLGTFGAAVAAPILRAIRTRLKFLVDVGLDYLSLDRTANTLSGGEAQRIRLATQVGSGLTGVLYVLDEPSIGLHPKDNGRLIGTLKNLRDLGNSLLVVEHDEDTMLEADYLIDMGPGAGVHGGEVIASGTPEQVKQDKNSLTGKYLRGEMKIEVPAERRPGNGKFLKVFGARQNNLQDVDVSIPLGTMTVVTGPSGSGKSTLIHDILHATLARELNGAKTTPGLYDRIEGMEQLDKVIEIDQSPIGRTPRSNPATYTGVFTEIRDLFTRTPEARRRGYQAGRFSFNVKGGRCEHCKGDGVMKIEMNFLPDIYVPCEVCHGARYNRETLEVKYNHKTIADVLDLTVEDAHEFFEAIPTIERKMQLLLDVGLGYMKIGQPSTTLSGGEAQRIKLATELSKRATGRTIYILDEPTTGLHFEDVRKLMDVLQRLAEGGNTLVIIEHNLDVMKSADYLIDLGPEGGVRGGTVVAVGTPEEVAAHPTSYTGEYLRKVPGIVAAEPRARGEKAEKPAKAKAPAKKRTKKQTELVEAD

drUvrA1 [2] = target: T1, drUvrA1; assay: fluorescence polarization; 2.5 mM Mg2+, 2.5 mM ATP; Hill 1.34; 50 mM Tris pH 7.5, 50 mM KCl, 5 mM DTT, 0.01% Tween 20, 2.5 mM MgCl2, 2.5 mM ATP, 0.1 mg/mL BSA; room temperature; 2 nM DNA, 0-1 uM drUvrA1 (dimer); conditions: protein: recombinant; tags: N-terminal His-tag removed by TEV; chain copies: 2; label: 5'-ATTO633 on strand 1; internal fluorescein-dT; blunt
drUvrA1 [3] = target: T1, drUvrA1; assay: fluorescence polarization; 2.5 mM Mg2+, 2.5 mM ATP; Hill 0.92; 50 mM Tris pH 7.5, 50 mM KCl, 5 mM DTT, 0.01% Tween 20, 2.5 mM MgCl2, 2.5 mM ATP, 0.1 mg/mL BSA; room temperature; 2 nM DNA, 0-1 uM drUvrA1 (dimer); conditions: protein: recombinant; tags: N-terminal His-tag removed by TEV; chain copies: 2; label: 5'-FAM on strand 1; blunt
drUvrA1 [4] = target: T1, drUvrA1; assay: fluorescence polarization; 2.5 mM Mg2+, 2.5 mM ATP; Hill 0.97; 50 mM Tris pH 7.5, 50 mM KCl, 5 mM DTT, 0.01% Tween 20, 2.5 mM MgCl2, 2.5 mM ATP, 0.1 mg/mL BSA; room temperature; 2 nM DNA, 0-1 uM drUvrA1 (dimer); conditions: protein: recombinant; tags: N-terminal His-tag removed by TEV; chain copies: 2; label: 5'-FAM on strand 1; blunt

B1: F26-seq2 (dsDNA)
DNA 1: GTTAGCGAACGATACCTTCAGTAGATCAAGTCCTAGCTGACCGGTTCGGC
DNA 2: GCCGAACCGGTCAGCTAGGACTTGATCTACTGAAGGTATCGTTCGCTAAC
modifications: fluorescein-conjugated dT at position 26 of strand 1
- Kd (drUvrA1 [1]): 9 ± 0.5 nM

B2: F26-seq1 (dsDNA)
DNA 1: GACTACGTACTGTTACGGCTCCATCTCTACCGCAATCAGGCCAGATCTGC
DNA 2: GCAGATCTGGCCTGATTGCGGTAGAGATGGAGCCGTAACAGTACGTAGTC
modifications: fluorescein-conjugated dT at position 26 of strand 1
- Kd (drUvrA1 [2]): 9 ± 0.7 nM

B3: 5'-FAM-seq1 (seq1-FAM) (dsDNA)
DNA 1: GACTACGTACTGTTACGGCTCCATCTCTACCGCAATCAGGCCAGATCTGC
DNA 2: GCAGATCTGGCCTGATTGCGGTAGAGATGGAGCCGTAACAGTACGTAGTC
- Kd (drUvrA1 [3]): 85 ± 12 nM

B4: B26-seq1 (dsDNA)
DNA 1: GACTACGTACTGTTACGGCTCCATCTCTACCGCAATCAGGCCAGATCTGC
DNA 2: GCAGATCTGGCCTGATTGCGGTAGAGATGGAGCCGTAACAGTACGTAGTC
modifications: biotin-conjugated dT at position 26 of strand 1
- Kd (drUvrA1 [4]): 128 ± 15 nM
